Assay [1] deals with T1, rat µ opioid receptor (rat, UniProt P33535 1-398). The assay is described as follows: cell-based or functional assay.
The target of assay [2] is T2, human δ opioid receptor (human, UniProt P41143 1-372). The assay can be described thus: cell-based or functional assay.
For assay [3], the target named is T1, rat µ opioid receptor. The assay is described as follows: competition vs [3H]DAMGO, rMOR cell membranes.
In assay [4] the target is T3, rat NK1 receptor (rat, UniProt P14600 1-407).
T3 construct: whole, on cells; membrane preparations of the transfected cells were used; also called rNK1; rNK-1
The assay is described as follows: competition vs [3H]Substance P, rNK1 CHO cell membranes.
T3 sequence (P14600 whole entry): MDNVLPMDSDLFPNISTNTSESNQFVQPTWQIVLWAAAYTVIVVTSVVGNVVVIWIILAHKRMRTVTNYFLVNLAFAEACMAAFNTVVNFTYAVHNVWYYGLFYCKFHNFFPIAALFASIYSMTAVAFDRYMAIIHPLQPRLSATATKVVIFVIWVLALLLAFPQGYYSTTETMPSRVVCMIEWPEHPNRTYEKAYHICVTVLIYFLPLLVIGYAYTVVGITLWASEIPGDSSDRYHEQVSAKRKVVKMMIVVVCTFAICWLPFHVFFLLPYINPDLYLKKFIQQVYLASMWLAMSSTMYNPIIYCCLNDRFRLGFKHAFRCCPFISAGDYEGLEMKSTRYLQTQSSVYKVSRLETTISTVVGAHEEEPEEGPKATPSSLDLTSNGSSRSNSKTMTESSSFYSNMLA

The target in assay [5] is T2, human δ opioid receptor. The assay can be described thus: competition vs [3H]DPDPE, hDOR cell membranes.
Assay [6] addresses T4, human NK1 receptor (human, UniProt P25103 1-407).
T4 construct: whole, on cells; membrane preparations of the transfected cells were used; also called hNK1; human neurokinin-1 receptor
The assay can be described thus: competition vs [3H]Substance P, hNK1 CHO cell membranes.
T4 sequence (P25103 whole entry): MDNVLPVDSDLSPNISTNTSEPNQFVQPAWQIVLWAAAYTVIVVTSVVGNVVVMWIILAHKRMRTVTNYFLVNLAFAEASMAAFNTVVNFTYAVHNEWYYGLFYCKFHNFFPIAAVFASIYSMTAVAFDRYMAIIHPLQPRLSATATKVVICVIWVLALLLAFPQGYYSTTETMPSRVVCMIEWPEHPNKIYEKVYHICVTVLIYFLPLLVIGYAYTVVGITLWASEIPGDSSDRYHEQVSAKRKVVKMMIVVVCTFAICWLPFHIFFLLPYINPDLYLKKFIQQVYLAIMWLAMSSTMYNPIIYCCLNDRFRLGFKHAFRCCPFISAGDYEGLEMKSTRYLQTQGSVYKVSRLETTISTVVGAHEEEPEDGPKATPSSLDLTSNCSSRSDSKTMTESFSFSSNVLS

A further assay has as its target guinea pig NK1 receptor (guinea pig, UniProt P30547 1-407). The assay can be described thus: cell-based or functional assay.
Assay [7] deals with µ opioid receptor of the guinea pig isolated ileum (guinea pig, UniProt P97266 1-98). The assay can be described thus: cell-based or functional assay.
Chain of µ opioid receptor of the guinea pig isolated ileum (P97266 whole entry): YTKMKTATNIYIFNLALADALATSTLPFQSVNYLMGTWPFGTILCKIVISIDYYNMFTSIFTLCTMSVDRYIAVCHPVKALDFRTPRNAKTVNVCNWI
The target of assay [8] is T2, human δ opioid receptor. The assay can be described thus: cell-based or functional assay. This is another data set of the same source.
Assay [9] addresses T3, rat NK1 receptor. The assay is described as follows: competition vs [3H]Substance P, rNK1 CHO cell membranes. The source holds these as a separate data set.
For assay [10], the target named is T2, human δ opioid receptor. The assay is described as follows: competition vs [3H]DPDPE, hDOR cell membranes. This is another data set of the same source.
In assay [11] the target is T5, rat NK1 receptor (rat, UniProt P14600 1-407).
T5 construct: whole, on cells; Assayed as membrane preparations of transfected CHO cells; also called rNK1; rNK-1
The assay is described as follows: competition vs [3H]substance P, membranes of rNK1-transfected CHO cells.
T5 sequence (P14600 whole entry): as the sequence (P14600 whole entry) above

Assay [12] addresses T6, human NK1 receptor (human, UniProt P25103 1-407).
T6 construct: whole, on cells; Assayed as membrane preparations of transfected CHO cells; also called hNK1; human neurokinin-1 receptor
The assay can be described thus: competition vs [3H]substance P, membranes of hNK1-transfected CHO cells.
T6 sequence (P25103 whole entry): as the sequence (P25103 whole entry) above

Assay [13] has as its target T4, human NK1 receptor. The assay is described as follows: competition vs [3H]Substance P, hNK1 CHO cell membranes. This is another data set of the same source.

Like-named read-outs stand apart in the source and are kept apart here. Square brackets hold non-standard residues; d marks the D form. Primed or numbered codes have the meaning given here. Ends that are not written are not given here. * marks the point of attachment. O‑Bzl(CF3)2 = C-terminal bis(trifluoromethyl)benzyl ester; OBzl(3,5-(CF3)2) = FC(F)(F)c1cc(CO*)cc(C(F)(F)F)c1; O‑Bzl(CF3)2″ = C-terminal Bzl(CF3)2 ester; Aib = CC(C)(N)C(=O)O

Broadly, the Ki is the equilibrium dissociation constant of an inhibitor or competing ligand from its target. Usually IC50 stands for the concentration at which inhibition is half-maximal. The low end stands for inhibition by little substance, the high end for a need for much substance.

T1 sequence (P33535 whole entry): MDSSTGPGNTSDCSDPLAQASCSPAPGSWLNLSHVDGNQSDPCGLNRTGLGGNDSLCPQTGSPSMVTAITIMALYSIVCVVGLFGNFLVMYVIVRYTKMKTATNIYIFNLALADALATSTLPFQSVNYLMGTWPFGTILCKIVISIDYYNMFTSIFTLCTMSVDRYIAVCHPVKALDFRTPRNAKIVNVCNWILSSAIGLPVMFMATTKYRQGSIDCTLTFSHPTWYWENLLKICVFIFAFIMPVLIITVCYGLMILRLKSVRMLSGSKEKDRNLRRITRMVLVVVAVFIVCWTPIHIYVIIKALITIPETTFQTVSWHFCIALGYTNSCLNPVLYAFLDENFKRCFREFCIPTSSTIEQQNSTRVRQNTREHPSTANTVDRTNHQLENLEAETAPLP
T2 sequence (P41143 whole entry, stated change not applied): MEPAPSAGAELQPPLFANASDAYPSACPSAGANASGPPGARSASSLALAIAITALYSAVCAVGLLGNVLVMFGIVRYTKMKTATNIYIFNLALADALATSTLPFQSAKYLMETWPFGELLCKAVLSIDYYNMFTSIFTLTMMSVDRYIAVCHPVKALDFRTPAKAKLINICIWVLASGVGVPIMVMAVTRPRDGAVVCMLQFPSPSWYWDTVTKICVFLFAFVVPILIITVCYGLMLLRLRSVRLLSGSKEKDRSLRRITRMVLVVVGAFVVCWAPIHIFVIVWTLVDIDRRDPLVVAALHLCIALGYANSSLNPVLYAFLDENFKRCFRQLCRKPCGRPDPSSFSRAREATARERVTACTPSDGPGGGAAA
Chain of guinea pig NK1 receptor (P30547 whole entry): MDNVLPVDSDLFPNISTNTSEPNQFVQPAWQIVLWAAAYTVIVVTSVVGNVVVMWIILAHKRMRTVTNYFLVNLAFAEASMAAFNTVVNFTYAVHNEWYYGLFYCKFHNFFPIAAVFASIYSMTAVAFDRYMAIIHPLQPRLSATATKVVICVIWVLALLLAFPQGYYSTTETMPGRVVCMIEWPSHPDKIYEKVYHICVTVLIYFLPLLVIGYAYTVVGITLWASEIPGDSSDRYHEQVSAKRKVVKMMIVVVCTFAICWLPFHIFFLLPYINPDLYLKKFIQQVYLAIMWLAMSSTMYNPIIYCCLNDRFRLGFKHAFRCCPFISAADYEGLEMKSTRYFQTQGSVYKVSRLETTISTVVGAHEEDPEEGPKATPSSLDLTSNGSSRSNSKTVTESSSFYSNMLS

As for Y[dA]GFAW-{O‑Bzl(CF3)2} (also called NP31) [Tyr-DAla-Gly-Phe-Ala-Trp-O-Bzl(CF3)2], the “GTP EMax” value with rat µ opioid receptor [1] was determined as 50; with human δ opioid receptor [2], 91. Moreover, the values for the inhibitory constant (Ki) in the assay with rat µ opioid receptor [3], with rat NK1 receptor [4] and in the assay with human δ opioid receptor [5] were 3.6 nM, 8.6 nM and 1.2 nM, respectively.

Y[dA]GFLW-{O‑Bzl(CF3)2} (also called NP37) [Tyr-DAla-Gly-Phe-Leu-Trp-O-Bzl(CF3)2]: the Ki with human NK1 receptor [6] came out at 0.09 nM; with rat µ opioid receptor [3], 23.3 nM; with rat NK1 receptor [4] it was 0.29 nM; with human δ opioid receptor [5], 2.9 nM. In addition, the “GTP EMax” value with rat µ opioid receptor [1] amounted to 54; with human δ opioid receptor [2] it was 60.

On to Y[dA]GF[dA]W-{O‑Bzl(CF3)2} (also called NP40) [Tyr-DAla-Gly-Phe-D-Ala-Trp-O-Bzl(CF3)2], for which the Ki in the assay with human NK1 receptor [6] came to 0.011 nM; in the assay with rat µ opioid receptor [3] it was 2.8 nM; with rat NK1 receptor [4] it was 2.4 nM; with human δ opioid receptor [5] it was 3.9 nM. The “GTP EMax” value with rat µ opioid receptor [1] came to 19; in the assay with human δ opioid receptor [2], 89.

In the case of Y[dA]GFMW-{O‑Bzl(CF3)2} (also called NP38) [Tyr-DAla-Gly-Phe-Met-Trp-O-Bzl(CF3)2], the Ki is 0.009 nM in the assay with human NK1 receptor [6], 3.3 nM in the assay with rat µ opioid receptor [3], 0.089 nM with rat NK1 receptor [4] and 0.6 nM in the assay with human δ opioid receptor [5]. Also, the “GTP EMax” value with rat µ opioid receptor [1] was 51; in the assay with human δ opioid receptor [2], 36.

As for Y[dA]GFPW-{O‑Bzl(CF3)2} (also called NP39) [Tyr-DAla-Gly-Phe-Pro-Trp-O-Bzl(CF3)2], the Ki with human NK1 receptor [6] was found to be 0.1 nM; with rat µ opioid receptor [3], 14.8 nM; in the assay with rat NK1 receptor [4], 1.6 nM. Besides, the entries for the “GTP EMax” value in the assay with rat µ opioid receptor [1] and with human δ opioid receptor [2] were 47 and 56, respectively.

For the molecule YAGFMPLW (D-Ala at 2; Met(O) at 5; C-terminal O-3,5-Bzl(CF3)2 ester, also called TY023) [TyrDAlaGlyPheMet(O)ProLeuTrpOBn(CF3)2], the “GPI/LMMP SP antagonist Ke” value with guinea pig NK1 receptor was 7.8 nM. Also, the “GPI/LMMP IC50” value in assay [7] worked out at 154 nM. In addition, in the assay with human δ opioid receptor [8], the “GTP binding Emax” value was 52.8%. In the assay with rat NK1 receptor [9], this molecule displayed an IC50 of 54.5 nM. In the assay with human δ opioid receptor [10], this molecule came in with a Ki of 5.1 nM.

B1: Tyr-DAla-Gly-Phe-γ-Abu-Trp-O-Bzl(CF3)2 (peptide)
peptide: Y[dA]GFXW-{O‑Bzl(CF3)2}
modifications: not fully specified (residue 5); printed as Tyr-DAla-Gly-Phe-γ-Abu-Trp-O-Bzl(CF3)2
notes: also called NP34
On to B1, for which the Ki with human NK1 receptor [6] worked out at 0.001 nM; in the assay with rat µ opioid receptor [3], 2.2 nM; in the assay with rat NK1 receptor [4], 7.4 nM; with human δ opioid receptor [5], 25.4 nM. Further, the “GTP EMax” value with rat µ opioid receptor [1] came to 27; in the assay with human δ opioid receptor [2], 40.

In the assay with rat NK1 receptor [11], H-Y[dA]GFPLW-{OBzl(3,5-(CF3)2)} (also: TFA salt, TFA salt; also called TY001) [H-Tyr-DAla-Gly-Phe-Pro-Leu-Trp-O-3,5-Bzl(CF3)2] had a Ki of 1.6 nM and a LogIC50 of -8.3. In the assay with human NK1 receptor [12], this molecule gave a Ki of 0.0023 nM and a LogIC50 of -11.3.

B2: DmtDAlaGlyPheNleProLeuTrpNHBn(CF3)2 (peptide)
peptide: YAGFXPLW
modifications: Dmt at 1 (written Y); D-Ala at 2; Nle at 5 (written X); C-terminal NH-3,5-Bzl(CF3)2 amide
notes: also called TY050
The molecule B2 returned a Ki in the assay with human NK1 receptor [13] of 0.075 nM.

B3: DmtDAlaGlyPheNleProLeuTrpNHBn-3-(CF3) (peptide)
peptide: YAGFXPLW
modifications: Dmt at 1 (written Y); D-Ala at 2; Nle at 5 (written X); C-terminal NH-3-Bn(CF3) amide
notes: also called TY053
For B3, the Ki with human NK1 receptor [13] was determined as 1.04 nM.

Regarding Y[dA]GF[Aib]W-{O‑Bzl(CF3)2″} (also called NP41) [Tyr-DAla-Gly-Phe-Aib-Trp-O-Bzl(CF3)2], the Ki stood at 0.008 nM with human NK1 receptor [6], 13.3 nM with rat µ opioid receptor [3], 3.4 nM in the assay with rat NK1 receptor [4] and 24.2 nM with human δ opioid receptor [5]. For the same molecule, the results for the “GTP EMax” value with rat µ opioid receptor [1] and with human δ opioid receptor [2] were 36 and 65, respectively.

The values above are taken from US8026218 (UNIVERSITY OF ARIZONA, dated 2011).
